These results are taken from patent publication US20260042834A1 (HBM ALPHA THERAPEUTICS, published 2026).

Residue numbers refer to the chain shown, from its start. Where “and” joins values, the source holds several entries; their conditions need not be identical. Identical values can stand only once. Like-named read-outs stand apart in the source and are kept apart here.

Holding throughout (assay): cell-based or functional assay
Experiment [1] deals with T1, corticotropin-releasing hormone (CRH) peptide (human and mouse (same sequence), not fully specified).
T1 peptide: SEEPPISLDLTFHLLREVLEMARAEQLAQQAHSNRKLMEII

Experiment [2] concerns the target T1, corticotropin-releasing hormone (CRH) ….
Experiment [3] shares this target.

B1: PR302341-10 (antibody, human IgG1, kappa, V domains shown)
VH: QVQLVQSGAEVKKPGASVKVSCKASGYTFTDYFMKWVRQAPGQGLEWMGVINPNNGDIFYNQKFKGRVTMTVDKSTSTAYMELSSLRSEDTAVYYCARGTDRALFAYWGQGTLVTVSS
VL: DVVMTQTPLSSPVTLGQPASISCRSGQSIVHSDGNTYLEWYQQRPGQPPRLLIYKVSNRFSGVPDRFSGSGAGTDFTLKISRVEAEDLGVYYCFQGSHIPWTFGGGTKVEIKR
In the case of B1, in experiment [1], the “hCRHR1 Luciferase Reporter Assay IC50” value was 0.11 nM and the “mCrhr1 Luciferase Reporter Assay IC50” value was 0.29 nM. In experiment [2], the “hCRHR1 Luciferase Reporter Assay IC50” value worked out at 0.342 nM and the “mCrhr1 Luciferase Reporter Assay IC50” value was 1.6 nM.

B2: PR302341-27 (antibody, human IgG1, kappa, V domains shown)
VH: B1 VH with T76I, S85R, E89D
VL: B1 VL with S11L, P12S, L15P, Q42L, R44K, P48S, R50Q, A72S
In the case of B2, the “hCRHR1 Luciferase Reporter Assay IC50” value in experiment [1] worked out at 0.518 nM.

B3: PR302341-24 (antibody, human IgG1, kappa, V domains shown)
VH: B1 VH with G44R, M70I, T76A
VL: B1 VL
In the case of B3, in experiment [1], the “hCRHR1 Luciferase Reporter Assay IC50” value is 0.192 nM and the “mCrhr1 Luciferase Reporter Assay IC50” value amounted to 0.156 nM.

B4: PR302341-25 (antibody, human IgG1, kappa, V domains shown)
VH: B1 VH with G44R, M70I, T76A
VL: B1 VL with S11L, P12S, L15P, Q42L, R44K, P48S, R50Q, A72S
In the case of B4, the “hCRHR1 Luciferase Reporter Assay IC50” value in experiment [1] is 0.711 nM.

B5: PR302341-26 (antibody, human IgG1, kappa, V domains shown)
VH: B1 VH with T76I, S85R, E89D
VL: B1 VL
As to B5, the “hCRHR1 Luciferase Reporter Assay IC50” value in experiment [1] was 0.273 nM.

B6: PR302334 (antibody, human IgG1, kappa, V domains shown)
VH: EVKLVESGGGLVKPGGSLKLSCAASGFTFSTYAMSWVRQTPEKRLEWVASIRSGGTTYYPDSVKGRFTISRDNARNILYLQMSSLRSEDTAIYYCTRGIDWGQGTLVTVSA
VL: NIVMTQTPKFLLVSAGDRITITCKASQSVNNDVAWYQQKPGQSPKLLIYYASNRYTGVPDRFTGSGYGTDFTFTISTVQAEDLAVYFCQQDYSSWTFGGGTNLEIKR
Take B6: in experiment [3], the “hCRHR1 Luciferase Reporter Assay IC50” value was 0.26 nM and 0.644 nM; the “mCrhr1 Luciferase Reporter Assay IC50” value was determined as 0.672 nM.

B7: PR302334-15 (antibody, human IgG1, kappa, V domains shown)
VH: EVQLVESGGGLVKPGGSLRLSCAASGFTFSTYAMSWVRQAPGKGLEWVSSIRSGGTTYYPDSVKGRFTISRDNAKNSLYLQMNSLRAEDTAVYYCARGIDWGQGTTVTVSS
VL: B6 VL
Take B7: in experiment [3], the “hCRHR1 Luciferase Reporter Assay IC50” value was 5.12 nM.

B8: PR302334-2 (antibody, human IgG1, kappa, V domains shown)
VH: B6 VH
VL: EIVMTQSPATLSVSPGERATLSCKASQSVNNDVAWYQQKPGQAPRLLIYYASNRYTGIPARFSGSGSGTEFTLTISSLQSEDLAVYFCQQDYSSWTFGGGTKVEIKR
B8: the “hCRHR1 Luciferase Reporter Assay IC50” value in experiment [3] was 0.597 nM.

B9: PR302334-6 (antibody, human IgG1, kappa, V domains shown)
VH: B6 VH
VL: DIQMTQSSLSASVSLGDRVTITCKASQSVNNDVAWYQQKPGKAPRLLIYYASNRYTGVPSRFSGSGSGTDFTFTISSLQPEDLATYFCQQDYSSWTFGGGTKVEIKR
For B9, in experiment [3], the “hCRHR1 Luciferase Reporter Assay IC50” value was 0.404 nM.

B10: PR302334-18 (antibody, human IgG1, kappa, V domains shown)
VH: B7 VH with K13Q, S49A, A74S, A96T
VL: B6 VL
For the molecule B10, the “hCRHR1 Luciferase Reporter Assay IC50” value in experiment [3] was determined as 0.279 nM.

B11: PR302334-4 (antibody, human IgG1, kappa, V domains shown)
VH: B6 VH
VL: DIVMTQSPDSLAVSLGERATINCKASQSVNNDVAWYQQKPGQPPRLLIYYASNRYTGVPDRFSGSGSGTDFTLTISSLQAEDLAVYFCQQDYSSWTFGGGTKVEIKR
Consider B11, for which, in experiment [3], the “hCRHR1 Luciferase Reporter Assay IC50” value was determined as 0.553 nM.

B12: PR302334-5 (antibody, human IgG1, kappa, V domains shown)
VH: B6 VH
VL: B9 VL with L83I, F87Y
Turning to B12, the “hCRHR1 Luciferase Reporter Assay IC50” value in experiment [3] was 0.325 nM.

B13: PR302334-1 (antibody, human IgG1, kappa, V domains shown)
VH: B6 VH
VL: B8 VL with L83F, F87Y
For B13, the “hCRHR1 Luciferase Reporter Assay IC50” value in experiment [3] was 0.624 nM.

B14: PR302334-16 (antibody, human IgG1, kappa, V domains shown)
VH: B7 VH with S49A, A96T
VL: B6 VL
Turning to B14, the “hCRHR1 Luciferase Reporter Assay IC50” value in experiment [3] turned out to be 0.339 nM.

B15: PR302334-17 (antibody, human IgG1, kappa, V domains shown)
VH: B7 VH with K13Q, A74S
VL: B6 VL
Consider B15, for which the “hCRHR1 Luciferase Reporter Assay IC50” value in experiment [3] was determined as 12.2 nM.

B16: PR302334-14 (antibody, human IgG1, kappa, V domains shown)
VH: B7 VH with K13Q, S49A, A74S, S77T, A96T
VL: B6 VL
In the case of B16, the “hCRHR1 Luciferase Reporter Assay IC50” value in experiment [3] is 0.468 nM.

B17: PR302334-3 (antibody, human IgG1, kappa, V domains shown)
VH: B6 VH
VL: B11 VL with L83V, F87Y
Take B17: in experiment [3], the “hCRHR1 Luciferase Reporter Assay IC50” value turned out to be 0.542 nM.

B18: PR302341 (antibody, human IgG1, kappa, V domains shown)
VH: EVQLQQSGPELVKPGASVKMSCKASGYTFTDYFMKWVKQSHGESLEWIGVINPNNGDIFYNQKFKGKATLTVDKSSSTAFMQLNSLTSEDSAVYSCARGTDRALFAYWGQGTLVAVSA
VL: DVLMTQTPLSLPVSLGDQASISCRSGQSIVHSDGNTYLEWYLQRPGQSPRLLIYKVSNRFSGVPDRFSGSGSGTDFTLKISRVGAEDLGIYYCFQGSHIPWTFGGGTKLEVKR
With B18, the “mCrhr1 Luciferase Reporter Assay IC50” value in experiment [1] was 0.611 nM. Besides, in experiment [2], the “hCRHR1 Luciferase Reporter Assay IC50” value was 0.437 nM and the “mCrhr1 Luciferase Reporter Assay IC50” value turned out to be 1.71 nM.

B19: PR302341-23 (antibody, human IgG1, kappa, V domains shown)
VH: B1 VH with T76I, S85R, E89D
VL: B1 VL with T7S, S11L, P48S, A72S
For B19, in experiment [1], the “hCRHR1 Luciferase Reporter Assay IC50” value stood at 0.043 nM and the “mCrhr1 Luciferase Reporter Assay IC50” value came out at 0.111 nM. In experiment [2], the “hCRHR1 Luciferase Reporter Assay IC50” value amounted to 0.351 nM and the “mCrhr1 Luciferase Reporter Assay IC50” value is 1.19 nM.

B20: PR302341-20 (antibody, human IgG1, kappa, V domains shown)
VH: B1 VH with G44R, M70I, V72R, K74T, T76A
VL: B1 VL with T7S, S11L, P48S, A72S
Take B20: in experiment [1], the “hCRHR1 Luciferase Reporter Assay IC50” value was 0.162 nM and the “mCrhr1 Luciferase Reporter Assay IC50” value came to 0.451 nM. Moreover, in experiment [2], the “hCRHR1 Luciferase Reporter Assay IC50” value was 0.188 nM and the “mCrhr1 Luciferase Reporter Assay IC50” value came to 1.62 nM.

B21: PR302341-22 (antibody, human IgG1, kappa, V domains shown)
VH: B1 VH with V72R, K74T, T76I, S85R, E89D
VL: B1 VL with T7S, S11L, P48S, A72S
As to B21, in experiment [1], the “hCRHR1 Luciferase Reporter Assay IC50” value was 0.243 nM.

B22: PR302334-7 (antibody, human IgG1, kappa, V domains shown)
VH: B7 VH with K13Q, S49A, A74S, S77T, A96T
VL: B8 VL with L83F, F87Y
On to B22, for which, in experiment [3], the “hCRHR1 Luciferase Reporter Assay IC50” value was 0.996 nM.

B23: PR302334-25 (antibody, human IgG1, kappa, V domains shown)
VH: B7 VH with S49A, A96T
VL: B9 VL
With B23, the “hCRHR1 Luciferase Reporter Assay IC50” value in experiment [3] came out at 1.7 nM.

B24: PR302334-22 (antibody, human IgG1, kappa, V domains shown)
VH: B7 VH with K13Q, A74S
VL: B8 VL
Turning to B24, in experiment [3], the “hCRHR1 Luciferase Reporter Assay IC50” value stood at 0.92 nM.

B25: PR302334-12 (antibody, human IgG1, kappa, V domains shown)
VH: B7 VH with K13Q, S49A, A74S, S77T, A96T
VL: B9 VL
Take B25: the “hCRHR1 Luciferase Reporter Assay IC50” value in experiment [3] was found to be 0.986 nM.

B26: PR302334-9 (antibody, human IgG1, kappa, V domains shown)
VH: B7 VH with K13Q, S49A, A74S, S77T, A96T
VL: B11 VL with L83V, F87Y
B26: in experiment [3], the “hCRHR1 Luciferase Reporter Assay IC50” value was 1.42 nM.

B27: PR302334-8 (antibody, human IgG1, kappa, V domains shown)
VH: B7 VH with K13Q, S49A, A74S, S77T, A96T
VL: B8 VL
With B27, in experiment [3], the “hCRHR1 Luciferase Reporter Assay IC50” value worked out at 0.816 nM and the “mCrhr1 Luciferase Reporter Assay IC50” value is 2.61 nM.

B28: PR302334-11 (antibody, human IgG1, kappa, V domains shown)
VH: B7 VH with K13Q, S49A, A74S, S77T, A96T
VL: B9 VL with L83I, F87Y
As for B28, the “hCRHR1 Luciferase Reporter Assay IC50” value in experiment [3] was 1 nM.

B29: PR302334-10 (antibody, human IgG1, kappa, V domains shown)
VH: B7 VH with K13Q, S49A, A74S, S77T, A96T
VL: B11 VL
For B29, in experiment [3], the “hCRHR1 Luciferase Reporter Assay IC50” value is 0.839 nM and the “mCrhr1 Luciferase Reporter Assay IC50” value was 2.66 nM.

B30: PR302334-24 (antibody, human IgG1, kappa, V domains shown)
VH: B7 VH with S49A, A96T
VL: B11 VL
For B30, in experiment [3], the “hCRHR1 Luciferase Reporter Assay IC50” value amounted to 0.778 nM and the “mCrhr1 Luciferase Reporter Assay IC50” value stood at 1.82 nM.
